Results: article PMC9170038
Where a chain is given by its changes, count along the chain named.

B1: Eterna 7739457 (Exclusion - Theophylline B) (ssRNA)
RNA: UUAUAUAUAUUAGAUACCAGUUUAAUGGAAACAAAUUAUGUUAUGAGUGAUGUUCAUGUAAGCCCUUGGCAGCUGGUAUGGGUUU
B2: Eterna 7739340 (Same State - Theophylline A) (ssRNA)
RNA: ACCAUCAAAGAUGGCCAGGACUCAACUGAUACCAGAGUGGAGACACUCCCUUGGCAGCAGGUGAGUGAUGUUCACGAGUCCUGGA
B3: Eterna 7736465 (Same State - FMN A) (ssRNA)
RNA: UUUCUUUUCUUUUGCGAUCCUAUCCCUUAUAAGGAUAUCUAGAAAUAGAGAAGGUAUGCAGUGAUGUUGCUUGGGAUAGGAUCGC
B4: Eterna 7745160 (Same State - Arginine B) (ssRNA)
RNA: GUUAAGUCGCGAAGGAGCGCGAACUAACAACGCAGUGAUGUUGCGUUGUACGUAGUAUAAUCGCAGGUAGGUCGCGCGACAGGCC
B5: Eterna 7675501 (Same State - Theophylline B) (ssRNA)
RNA: CCAUCGCUAUUCGAUACCAGUCAUAAAAUCUUUGGUUAAAUAAAGGAGUGAUGUUCCAAAGACCCUUGGCAGCGAAUAGUGAUGG
B6: Eterna 7734762 (Same State - FMN B) (ssRNA)
RNA: UGUACCGAGUAAGGAUAUGUCGUCGAAAGACGAAAUGGAGUGAUGUUCCUUAAACUGCGAAAGCAGACAGAAGGUACUUGGUACU
B7: Eterna 7722704 (Same State - FMN A) (ssRNA)
RNA: GGCAGUGAUGUUGCCUAAGCAACGCAUGCAGAGGAUAUUCGUUCGGGAAGAAGGCUGCAGCGUUCUCUCGUCAGUGAUGUUGGCG
B8: Eterna 7734716 (Exclusion - FMN B) (ssRNA)
RNA: GGAUAGGACACAGGAUAUGGUAGUGAUGUUACCAAACUGGUUAAACAUGUCAGAAAACUGGCAUGACCAGAAGGGUGUCCUAUCG
B9: Eterna 7741440 (Same State - Theophylline A) (ssRNA)
RNA: GGAGUGAUGUUCCAUUUUUAAAUCUCCGAUACCAGUAUGGAAACAUACCCUUGGCAGCGGUAAACCGCAGAUUAGGAAACUAGUC
B10: Eterna 1038 (Exclusion - FMN A) (ssRNA)
RNA: UCACCGCCUAGUGAUGUUACGCGACUCAGAAAGGAUAUAAUCAAUCUUAGAAGGUUCACACCGUAUGGAUAUUAUCUAUCUCGUU
B11: Eterna 7716400 (Same State - Theophylline B) (ssRNA)
RNA: AUUUGUUUAUGUGAUACCAGACUAAGCAGUGAUGUUGCUUUUAUUUUUGAAUUUUAAAUAGUCCCUUGGCAGCACUAUGUCUGUA
B12: Eterna 1619 (Same State - Theophylline A) (ssRNA)
RNA: GUGUAAGUGAUGUUUGCACACACGUCGGAUACCAGAGACUUUAGCCUCCCUUGGCAGCCGCCGGCCAUAAGAGCAAGUCGAUUUA
B13: Eterna 7691377 (Same State - Tryptophan B) (ssRNA)
RNA: UAUCUAUGCUCGGCCGCCACUAGGACCGGGAGGUAACUAGUGAUGUUAGUAUCUUCGGCCGCCACUAGGACCGGGAGUGUAGAUA
B14: Eterna 7696080 (Exclusion - Tryptophan B) (ssRNA)
RNA: UGAUACCAGACGGCCGCCACUAGGACCGGGAGUGAUGUUCCCAAUUUAAAAUGCUCGGCCGCCACUAGGACCGGGUCUGGUAUCU
B15: Eterna 7758792 (Exclusion - Tryptophan B) (ssRNA)
RNA: UGAUACCAGACGGCCGCCACUCCCGUAAGUCAAAGACUUACGAAGAGGGUUUUUCAGUGAUGUUGGAGGACCGGGUCUGGUAUCU
B16: Eterna 7673920 (Same State - Theophylline B) (ssRNA)
RNA: UGUAUGUGAUCUGAUACCAGCGUUGAUAACCUGAGGAUCACCCUGGUAAGGCGAAAGCCACGCCCUUGGCAGCAGAUCGCAUACU
B17: Eterna 7730292 (Same State - Arginine B) (ssRNA)
RNA: UGUAUGGACUGAAGGAGCGGAAAAUAAACCUGAGGAUCACCCGGGUAAUAGGCGAAAGCCAUCCAGGUAGGUCGCAGUCCAUACU
B18: Eterna 7730095 (Same State - Theophylline B) (ssRNA)
RNA: UGUAUGUGAUCUGAUACCAGUCCAACUGGUAAACCAUGAGGAUCACCCAUGGAAAAUUGGGACCCUUGGCAGCAGAUCGCAUACU
B19: Eterna 7729933 (Exclusion - Tryptophan B) (ssRNA)
RNA: GGAUAGGACACGGCCGCCACUUGCUAGGAUACUAGCAACAUUUCCUCUCAUGAGGAUCACCCAUGAAGGACCGGGUGUCCUAUCG
B20: Eterna 7730917 (Exclusion - Tryptophan A) (ssRNA)
RNA: AGACUGUCUUCGGACAGUCCGGACAGCCCGCGAGGACCGGUACGGCCGCCACUCGCGUGAGGAUCACCCAUGCGAGGCUGUCCGA
B21: Eterna 7653871 (Same State - Theophylline B) (ssRNA)
RNA: UGUAUGUGAUUUGAUACCAGACCAGCUGGUGGUGCAUGAGGAACACCCAUGCAGGUUUGGGUCCCUUGGCAGCAAAUCGCAUACU
B22: Eterna 7653873 (Same State - Theophylline B) (ssRNA)
RNA: B21 RNA with G34C, C52G
B23: Eterna 7610184 (Exclusion - Tryptophan B) (ssRNA)
RNA: GGAGCUACGUCGGCCGCCACUAGCGGGUAUUGCGUGUACAUGAGGAUCACCCAUGUAAUACGGCCUAGGACCGGGACGUAGCUCC
B24: Eterna 6146924 (Exclusion NG 1) (ssRNA)
RNA: GUGACGGAUGUAGGAUAUGCUGACCAAUGGUCAGCAGAAGGACAUGAGGAUCACCCAUGUCAUCCUUAUAAUAAAUACCGUCAC
B25: Eterna 1225 (Exclusion - Tryptophan A) (ssRNA)
RNA: GGAGGCCAGGCCUGCGAAGUGAUGUUUUGACGAGGACCGGUACGGCCGCCACUCGAAUGUUCUAUCAUCGUACGAACUUCUGCGU
B26: Eterna 6381991 (Exclusion NG 1) (ssRNA)
RNA: AUGCUUUAUGUAGGAUAUGCAUACGGUACGUAUGCAGAAGGACAUGAGGAUCACCCAUGUAAAUUAUUAUUACAUAUCAUACAU
B27: Eterna 6428572 (Exclusion NG 2) (ssRNA)
RNA: GUCUCCGCUCGAGGAUAUAGCUGCAUGUAGUGUCCUGAGGCACAUGAGGAUCACCCAUGUGUAGGCUAGAAGGCGACGGACACU
B28: Eterna 6439566 (Inverted Small Loop Same State NG 1) (ssRNA)
RNA: GGACAUUUACAGAAGGGCAAGCUCGAAAGCGGAGAACGCGAACGAGCUUGCAGGAUAUGUUGAACAUGAGGAUCACCCAUGUCU
B29: Eterna 6095017 (Exclusion NG 3) (ssRNA)
RNA: AAGGACUGUAAUAAUGUAGAAAUACAUGAGGAUCACCCAUGUAAGGAUAUCGUCAGGAAUACUGACGAGAAGGUACAUCAGUCC
B30: Eterna 6095051 (Same State NG 3) (ssRNA)
RNA: UUAACAUGAGGAUCACCCAUGUAAAGAACGGUUAAUUAAAGUGAGGAUAUACAAAAUUUUAUAUUGUAGAAGGCACUGGGUACA
B31: Eterna 5982897 (Exclusion 6) (ssRNA)
RNA: GCAUGCUCCGAGGAUAUCGAAGCUAAUUAUGCACGAGAAGGCGGAACAUGAGGAUCACCCAUGUGAUGCCUAAA
B32: Eterna 7609491 (Same State - Tryptophan A) (ssRNA)
RNA: ACAUGAGGAUCACCCAUGUUUGUUGUUCCUCGAGGACCGGUACGGCCGCCACUCGAACGAGUGGCACGCGAGUGCGCACUCGCGU
B33: Eterna 6433398 (Small Loop Exclusion NG 3) (ssRNA)
RNA: UGAUCGAGAGAUCUUAGAUUCUGGUAGGAUAUACAUUAUAAAAGCUUUACAUGAGGAUCACCCAUGUAGAAGGACUAGAGUCUA
B34: Eterna 6429522 (Inverted Exclusion NG 3) (ssRNA)
RNA: GUGGAUAGACGCCCACGUGAGACAUGAGGAUCACCCAUGUACAGAAGGUGGAGCGUUAAUGGUGCCAAGGAUAUGUACAUAAGG
B35: Eterna 9910 (Sensor v3, turn-off variant 1) (ssRNA)
RNA: GAUUAUGCAAGCUUUCGGGACAUGAGGAUCACCCAUGUUCGUCUUAUUGAUCUAGGUACGCUGACGUACCUAGAUCU
B36: Eterna 6055371 (Brourd's mod of Exclusion 4) (ssRNA)
RNA: GAUCGCCAUGUCAGGAUAUCUUGUAUACCCACGUUAGAGAAGGGACAUGAGGAUCACCCAUGUACCCUGGUUUU
B37: Eterna 5984275 (Exclusion 4) (ssRNA)
RNA: AUUGUGUGAGGAUAUUAGCAGUAGACGAAUGGAGUCGUGGCUGAGAAGGCACAUGAGGAUCACCCAUGUUCCUU
B38: Eterna 6441202 (Exclusion NG 1) (ssRNA)
RNA: ACAUUUUAUGCAGGAUAUUGACAUAGGAUUAAACAAGAAGGGCAUUACAUGAGGAUCACCCAUGUUUUAUUGGUAUAUAAGUUC
B39: Eterna 6073973 (Exclusion 2) (ssRNA)
RNA: UAGAUGGGAGGAUAUACGUAUAUGCAGGUUCGUGUGGUGCUACAUGAGGAUCACCCAUGUAGAAGGCCCGUCUU
B40: Eterna 5789023 (Sensor v3, turn-off variant 2) (ssRNA)
RNA: ACAAGCUUUUUGUUCGUCUUAUAAAAUCCUAAGAGGAAAACAUGAGGAUCACCCAUGUAACAAAGACGGACUCAUGU
B41: Eterna 6456081 (Exclusion NG 2) (ssRNA)
RNA: GGAUAGGACAGAGGAUAUACGUGCUAGAGAUACUAGCAAAAUUUCCACACAUGAGGAUCACCCAUGUAGAAGGCUGUCCUAUCG
B42: Eterna 5979585 (Sensor, turn-off variant 1) (ssRNA)
RNA: UACACUGCAUGAGGAUCAAACAUGAGGAUCACCCAUGUAUAGCAGGCUUUUUGUACGUCUUAUAAUUAUGUAGUGUA

What follows are binders tested against MS2 coat protein, dlFG mutant (Escherichia phage MS2, UniProt P03612, del68-81insG) (assay: 4 mM Mg2+; no ligand; RNA-MaP array; 100 mM Tris-HCl pH 7.5, 80 mM KCl, 4 mM MgCl2, 0.1 mg/mL BSA, 1 mM DTT, 0.01 mg/mL yeast tRNA, 0.01% Tween-20; protein 1.5 nM to 3 uM; 37 C (Table S3)). Conditions: chain copies: 2; label: tethered by stalled RNA polymerase.

Row | Binder | Kd
1 | B1 | > 3000 nM
2 | B2 | > 3000 nM
3 | B3 | > 3000 nM
4 | B4 | > 3000 nM
5 | B5 | > 3000 nM
6 | B6 | > 3000 nM
7 | B7 | > 3000 nM
8 | B8 | > 3000 nM
9 | B9 | > 3000 nM
10 | B10 | > 3000 nM
11 | B11 | > 3000 nM
12 | B12 | > 3000 nM
13 | B13 | > 3000 nM
14 | B14 | > 3000 nM
15 | B15 | > 3000 nM
16 | B16 | 193 nM
17 | B17 | 279 nM
18 | B18 | 310 nM
19 | B19 | 20.8 nM
20 | B20 | 34.7 nM
21 | B21 | 145 nM

Row | Binder | Kd
22 | B22 | 83.2 nM
23 | B23 | 12 nM
24 | B24 | 13.7 nM
25 | B25 | > 3000 nM
26 | B26 | 10.9 nM
27 | B27 | 11 nM
28 | B28 | 8.1 nM
29 | B29 | 16.5 nM
30 | B30 | 19.5 nM
31 | B31 | 14.4 nM
32 | B32 | 12.3 nM
33 | B33 | 6.84 nM
34 | B34 | 4.92 nM
35 | B35 | 16.5 nM
36 | B36 | 15.4 nM
37 | B37 | 16.8 nM
38 | B38 | 15.5 nM
39 | B39 | 19.1 nM
40 | B40 | 13 nM
41 | B41 | 5.84 nM
42 | B42 | 15.1 nM
